The values that follow come from paper PMC4893818, “Folliculin directs the formation of a Rab34–RILP complex to control the nutrient‐dependent dynamic distribution of lysosomes” (EMBO Reports, 2016).

Experiment [1] deals with T1, GST-RILP (full ORF) (human, UniProt Q96NA2 1-401).
T1 construct: also called GST-RILP resin; source: E. coli BL21(DE3), purified (glutathione beads, eluted with glutathione, dialysed); not shown: GST, N-terminal, kept
T1 sequence (looked up): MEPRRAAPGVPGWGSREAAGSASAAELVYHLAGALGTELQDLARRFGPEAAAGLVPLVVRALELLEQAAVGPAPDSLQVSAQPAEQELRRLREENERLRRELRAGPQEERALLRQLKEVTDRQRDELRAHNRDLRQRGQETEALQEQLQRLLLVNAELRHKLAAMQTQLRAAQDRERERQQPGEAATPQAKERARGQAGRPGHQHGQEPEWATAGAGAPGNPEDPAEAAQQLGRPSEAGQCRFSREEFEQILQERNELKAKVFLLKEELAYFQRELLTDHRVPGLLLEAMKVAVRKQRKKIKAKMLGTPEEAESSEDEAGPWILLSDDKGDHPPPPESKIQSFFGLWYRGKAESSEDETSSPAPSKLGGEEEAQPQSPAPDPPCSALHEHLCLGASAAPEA
Description: pull-down; GST-RILP or GST on beads, His-FLCN-DENN in E. coli extract; Western blot. The following applies: one partner purified.

Experiment [2] addresses T1, GST-RILP (full ORF). Nature of the experiment: pull-down; purified proteins: 0.2 nmol GST-RILP on glutathione beads; Rab34 proteins at 200 nM together with FLCN-DENN (1 uM; titrated 0 to 10 uM; 0.5 uM for wild-type Rab34); HEPES pH 7.5, 250 mM NaCl, 2 mM MgCl2, 1 mM GDP or GTPγS; 14 h at 4 °C; anti-His Western blot. The following applies: both partners purified. Background: Immunoblotting shows a protein as a band on a membrane.

Experiment [3] addresses T1, GST-RILP (full ORF). Nature of the experiment: pull-down; 0.1 nmol GST-RILP prebound to glutathione beads, lysate of HeLa cells in normal growth or starved 4 h; 25 mM HEPES pH 7.5, 150 mM NaCl, 2 mM MgCl2, 0.2% NP-40, 0.2% Triton X-100; Western blot. The following applies: one partner purified.

B1: His-tagged human FLCN-DENN domain (amino acids 341-556) (domain or fragment, UniProt Q8NFG4 341-556, looked up)
chain: RKLPVFKSLRHMRQVLGAPSFRMLAWHVLMGNQVIWKSRDVDLVQSAFEVLRTMLPVGCVRIIPYSSQYEEAYRCNFLGLSPHVQIPPHVLSSEFAVIVEVHAAARSTLHPVGCEDDQSLSKYEFVVTSGSPVAADRVGPTILNKIEAALTNQNLSVDVVDQCLVCLKEEWMNKVKVLFKFTKVDSRPKEDTQKLLSILGASEEDNVKLLKFWMTG
notes: folliculin (FLCN), human, C-terminal DENN domain, amino acids 341-556, in pET28 His-thrombin; vector pET28 His-thrombin; detected by an anti-His antibody; also called His-FLCN-DENN; source: E. coli, purified (His-trap FF, imidazole gradient)
With B1, the binding result with GST-RILP (full ORF) [1] was “binds”.

B2: His-tagged Rab34 WT (natural protein, mouse, UniProt Q64008 1-259, looked up)
chain: MNILAPVRRDRVLAELPQCLKKEAALHVRKDFHPRVTCACQEHRTGTVGFKISKVIVVGDLSVGKTCLINRFCKDTFDKNYKATIGVDFEMERFEVLGVPFSLQLWDTAGQERFKCIASTYYRGAQAIIIVFNLNDVASLEHTKQWLTDALKENDPSNVLLFLVGSKKDLSTPAQYSLMEKDALKVAQEIKAEYWAVSSLTGENVREFFFRVAALTFEANVLADVEKSGARHIADVVRINSDDKNLYLTASKKKATCCP
notes: Rab34, mouse, from an I.M.A.G.E. clone, in pET28 His-thrombin; loaded with GTPγS or GDP before the pull-down; also called wild-type Rab34; purified Rab34; source: E. coli, purified (His-trap FF, imidazole gradient)
With B2, the binding result with GST-RILP (full ORF) [2] was “binds”.

B3: His-tagged Rab34 Q111L (natural protein, mouse, UniProt Q64008 1-259, looked up)
chain: MNILAPVRRDRVLAELPQCLKKEAALHVRKDFHPRVTCACQEHRTGTVGFKISKVIVVGDLSVGKTCLINRFCKDTFDKNYKATIGVDFEMERFEVLGVPFSLQLWDTAGLERFKCIASTYYRGAQAIIIVFNLNDVASLEHTKQWLTDALKENDPSNVLLFLVGSKKDLSTPAQYSLMEKDALKVAQEIKAEYWAVSSLTGENVREFFFRVAALTFEANVLADVEKSGARHIADVVRINSDDKNLYLTASKKKATCCP
notes: Rab34, mouse, from an I.M.A.G.E. clone, in pET28 His-thrombin; assayed in the presence of 1 mM GTPγS; also called GTP hydrolysis-deficient (Q111L) Rab34; source: E. coli, purified (His-trap FF, imidazole gradient)
Turning to B3, in the experiment with GST-RILP (full ORF) [2], the “fold enhancement of binding to RILP in the presence of FLCN-DENN (1 uM) against without it” value is around 2.7 fold.

B4: endogenous Rab34 (natural protein, UniProt Q9BZG1 1-259, looked up)
chain: MNILAPVRRDRVLAELPQCLRKEAALHGHKDFHPRVTCACQEHRTGTVGFKISKVIVVGDLSVGKTCLINRFCKDTFDKNYKATIGVDFEMERFEVLGIPFSLQLWDTAGQERFKCIASTYYRGAQAIIIVFNLNDVASLEHTKQWLADALKENDPSSVLLFLVGSKKDLSTPAQYALMEKDALQVAQEMKAEYWAVSSLTGENVREFFFRVAALTFEANVLAELEKSGARRIGDVVRINSDDSNLYLTASKKKPTCCP
notes: Rab34 small GTPase, endogenous in human cell lines; source: endogenous, HeLa lysate; endogenous, lysates of UOK257, UOK257-2, UOK257-FLCN and UOK257-FLCNΔDENN cells
As for B4, the “fold increase of Rab34 retained on GST-RILP, starved against normal growth” value in the experiment with GST-RILP (full ORF) [3] is around 2 fold.
